Molecular target: Fab with lambda light chain (Cλ)
Test: ELISA; reference is the Fab with kappa light chain

EC50 ratio, Cλ Fab over CK Fab: 7 fold
Substance: wild-type Protein-G (C2 domain / Fab binding domain)

Reference: patent US20180044385A1
